B1: TPR t1 (parent)
chain: GACCAAUCUGCCCUCAGAGCUCGAGAACAUCUUCGGAUGCAGAGGAGGCAGGCUUCGGUGGCGCGAUAGCGCCAACGUCCUCAACCUCCAAUGCAUCCCACCACAUGAUGAUGCCUGAAGAGCCUUGGUUUUUUG

Variants of: B1
Assay: polymerase ribozyme fitness, log enrichment relative to wild type (log ratio); higher = more active; in vitro selection for triplet polymerase activity
How it was run: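 For each subunit of a heterodimeric triplet polymerase ribozyme, a mutant library was built by PCR and transcribed, then taken through a single in vitro selection round in triplicate. Selection involved annealing to a biotinylated primer, the partner subunit and triplets, incubation frozen at −7 °C, gel excision of extended constructs, capture on streptavidin beads and RT-PCR. Genotypes were retained after Illumina sequencing of inputs and outputs only with ≥10 input reads and ≥1 read in each output. Fitness is defined as the logarithm of a genotype's enrichment relative to wild-type enrichment, using inverse-variance-weighted averages across replicates, with the logarithm taken to base 2.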

Variant	polymerase ribozyme fitness (log ratio)
GACCAAUCUGCCCUCAGAGCUCGAGAACAUCUUCGGAUGCAGAGUAGGCAGGCUUGGGUGGCCCGAUAGCGCCAACGUCCUCAACCUCCAAUGCAUCCCAUCACAUGAUGAUGCCUGAAGAGCCUUGGUUUUUUG [G45U C56G G63C C101U]	-5.92
GAACAAUCUGCCCUCAGAGCUCGAGAACAUCUUCGGAUGCAGAGGAGGCAGGCUUCGGUGGCGCGAUAGCGCCAACGUCCUCAACCUCCAAUGCAUCCCACCACGUGAUGAUGCCUGAAGAGCCUUGGUUUUUUG [C3A A105G]	-4.78
GACCAAUCUGGCCUCAGAGCUCGAGAACAUCUUCGGAUGCACAGGAGGCAGGCUUCGGUGGCGCGAUAGCGCCAACGUCCUCAACCUCCAAUGCAUCCCACCACAUGAUGAUGCCUGAAGAGCCUUGGUUUUUUG [C11G G42C]	-1.1
GACCAAUCUGCCCUCAGAGCUCGAGAACAUCUUCGGUUGCAGAGGAGGCAGGCUUCGGUGGCGCGAUAGCGCCUACGUCCUCAACCUCCAAUGCAUCCCACCACAUGAUGAUGCCUGAAGAGCCUUGGUUUUUUG [A37U A74U]	-0.149
GACCAAUCUGCCCUCAGAGCUCGAGAACAUCUUCGGAUGCAGAGGAGGCAGGCUUCGGUGGCGCGAUAGCGCCAACGUCCUCAACCUCCAAUGCAUCCCACCACAUGAUGAUGCCUGAACAGCCUAGGUUUUUUG [G120C U126A]	-0.0406
GACCAAUCUGCCCUCAGAGCUCGAGAUCAUCUUCGGAUGCAGAGGAGGCAGGCUUCGGUGGCGCGAUAGCGCCAACGUCCUCAACAUCCAAUGCAUCCCACCACAUGAUGAUGCCUGAAGAGCCUUGGUUUUUUG [A27U C86A]	-3.77
GACCAAUCUGCCCUCAGAGCUUGAGAACAUCUUCGGAUGCAGAGGAGGCAGGCUUCGGUGGCGCGAUAGCGCCAACGUCCUUAACCUCCAAUGCAUCCCACCACAUGAUGAUGCCUGAAGAGCCUUGGUUUUUUG [C22U C82U]	-4.56
GACCAAUCUGCCCUCAGAGCUCGAGAACAUCUUCGGAUGCCGAGGAGGCAGGCUUCGGUGGCGCGAUAUCGCCAACGUCCUCAACCUCCAAUGCAUCCCACCACAUGAUGAUGCCUGAAGAGCCUUGGUUUUUUG [A41C G69U]	-0.161
GACCAAUCUGCCCUCAGAGCUCGAGAACAUCUUCGGAUGCAGAGGAGGCAGGCUUCGGUGGCGCGAUAGCGCCAACGUCCUCAACCUCCAAUGCAUCCCACCACAUGAUGAUGCCUGAACAGCCUUGGUUUCUUG [G120C U132C]	1.38
GACCAAUCUGCCCUCAGAGCUCGAGAACAUCUUCGGAUGCAGAGGAGGCAGGCGUCGGUGGCGCGAUAGCGCCAACGUCCUCAACCUCCAAUGAAUCCCACCACAUGAUGAUGACUGAAGAGCCUUGGUUUUUUG [U54G C94A C114A]	-3.33
GACCAAUCUGCCCUCAGGGCUCGAGAACAUCUUCGGAUGCAGAGGAGGCUGGCUUAGGUGGCGCGAUAGCGCCAACGUACUCAACCUCCAAUGCAUCCCAUCACAUGAUGAUGCCUGUAGAGCUUUGGUUUUUUG [A18G A50U C56A C79A C101U A118U C124U]	-7.24
GACCAAUCUGCCCUCAGAGCUCGAGAACAUCUUCGUAUGCAGAGGAGGCAGGCUUCGGUGGCGCGAUAGCGCCAACGUCCUCAACCUCCAAUGCAUCCCACCACAUGAUGAUGCCUGGAGAGCCUUGAUUUUUUG [G36U A118G G128A]	-3.98
GACCUAUCUGCCCUCAGAGCUCGAGAACAUCUUCGGAUGCAGACGAGGCAGGCUUCGGUGGCGCGAUAGCGCUAACGUCCUCAACCUCCAAUGCAUCCCACCACAUGAUGAUGCCUGAAGAGCCUUGGUUUUUUG [A5U G44C C73U]	-1.65
GACCAAUCUCCCCUCAGAGCUCGAGAACAUCUUCGGAUGCAGAGGAGGCAGGCUUCGGUGGCGCGAUAGCGCCGACGUCCUCAACCUCCAAUGCAUCCCACCACAUGAUGAUGCCUGAAGAGCCUUGGUUUUUUG [G10C A74G]	-1.26
GACCAAUCUGCCCUCAGAGCUAGAGAACAUCUUCGGAUGCAGAGGAGGCAGGCUUCGGUGGCGCGAUAGCGCCAACGUCCUCGACCUCCAAUGCAUCCCACCACAUGAUGAUGCCUGAAGAGCCUUGGUUUUUUG [C22A A83G]	-5.4
GACCACUCUGCCCUCAGAGCUCGAGAACAUGUUUGGAUGCAUAGGAGGCAGGCUUCGGUGGCGCGAUAGCGCCAACGUCCUCAACCUCCAAUCCAUCCCACCACAUGAUGCUGCCUGAAGAGCCUUGGUUUUUUG [A6C C31G C34U G42U G93C A111C]	-6.9
GACCUAUCUGCCCGCAGAGCUCGAGAACAUCUUCGGAUGCAGAGGAGGCAGGCUUCGGAGGUGCGAUAGCGCCAACGUCCUCAACCUCCAAUGCAUCCCACCACAUGAUGAUGCCUGAAGAGCCUUGGUUUUUUG [A5U U14G U59A C62U]	-2.15
GACCAAUCUCCCCCUAGAGCUCGAGAACAUCUUCGGAUGCAGAGGAGGCAGGCUUCGGUGGCGCGAUAGCGCCAACGUCCUCAACCUCCAAUGUAUUCCACCACAUGAUGAAGCCUGAAGAGCCUUGGUUUUUUG [G10C U14C C15U C94U C97U U112A]	-1.07
GACCAAUCUACCCUCAGAGCUCGAGAACAUCUUCGGAUGCAGAGGAGGCAGGCUUCGGUGGCGCGAUAGGGCCAACGUCCUCAACCUCCAAUGCAUCCCACCACAUGAUGAUGCCUGAAUAGCCUUGGUUUUUUG [G10A C70G G120U]	-1.35
GACCAAUCUGCCCUCAGAGCUCGAGAACAUCUUCGGAUGCAGAGGAGGCAGGCUUCUGUGGCGCGAUAGCGCCAACGUCCUCAACCUCCAAUGCAUCCCACCAAACGAUGAUGCCUGAAGAGCCAUGGUUCUUUG [G57U C104A U106C U125A U131C]	-1.82
GACCAAUCUGCCCUCAGAGCUCGAGAACAUCUUCGGAUGCAGAGGAGGCAGGCUUCGGUGGCGCGAUAGCGCCAACAUUCUCAACCUCCAAUGCAUCCCACCACAUGAUGAUGCCUGAAGAGCCUUGGUUUUUUG [G77A C79U]	0.354

— the RNAGym collection of RNA variant scans (doi:10.1073/pnas.2313332121)
